T1: Fusion protein of LAG-3 extracellular region and mIgG2a Fc (human)
T1 construct: Limits of the signal peptide are marked only by lost underlining; also called LAG-3-mFc; LAG-3-mFc fusion protein
T1 chain: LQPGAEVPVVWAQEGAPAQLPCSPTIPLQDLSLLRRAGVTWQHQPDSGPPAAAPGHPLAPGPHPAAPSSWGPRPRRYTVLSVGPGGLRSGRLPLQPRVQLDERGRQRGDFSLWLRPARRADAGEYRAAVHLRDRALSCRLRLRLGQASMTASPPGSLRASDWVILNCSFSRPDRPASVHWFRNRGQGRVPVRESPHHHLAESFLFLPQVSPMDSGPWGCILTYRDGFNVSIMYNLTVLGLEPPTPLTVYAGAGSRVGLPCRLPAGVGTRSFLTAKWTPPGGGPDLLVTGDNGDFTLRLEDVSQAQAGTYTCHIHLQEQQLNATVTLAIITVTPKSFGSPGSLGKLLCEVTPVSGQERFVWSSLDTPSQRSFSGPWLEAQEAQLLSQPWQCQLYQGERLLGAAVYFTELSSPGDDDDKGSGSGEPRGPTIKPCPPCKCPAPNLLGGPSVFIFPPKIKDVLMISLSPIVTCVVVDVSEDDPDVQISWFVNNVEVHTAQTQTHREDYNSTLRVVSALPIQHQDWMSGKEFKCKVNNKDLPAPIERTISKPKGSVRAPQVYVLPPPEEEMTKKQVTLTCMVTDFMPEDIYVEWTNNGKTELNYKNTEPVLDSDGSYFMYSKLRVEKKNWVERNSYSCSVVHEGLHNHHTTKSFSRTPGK

B1: Hu303-011 (antibody, human IgG4 S228P, kappa, V domains shown)
VH: QVQLVQSGAEVKKPGASVKVSCKASGYTFTDYYMNWVRQAPGQRLEWMGVINPYNGDTAYNQKFKGRVTITVDKSASTAYMELSSLRSEDTAVYYCTRDDGYYDYYFDVWGQGTTVTVSS
VL: DIQMTQSPSSLSASVGDRVTITCRASQDIGSRLNWYQQKPGKAPKRLIYATSTLDSGVPKRFSGSRSGTDFTLTISSLQPEDFATYYCLQLASSPPTFGGGTKVEIKR
notes: Humanized mAb303
B2: Hu303-007 (antibody, human IgG4 S228P, kappa, V domains shown)
VH: QVQLVQSGAEVKKPGASVKVSCKASGYTFTDYYMNWVRQAPGQRLEWMGVINPYNGDTAYNQKFKGRVTITRDTSASTAYMELSSLRSEDTAVYYCARDDGYYDYYFDVWGQGTTVTVSS
VL: DIQMTQSPSSLSASVGDRVTITCRASQDIGSRLNWLQQKPGKAFKRLIYATSTLDSGVPKRFSGSRSGTDFTLTISSLQPEDFATYYCLQLASSPPTFGGGTKVEIKR
notes: Humanized mAb303
B3: Hu303-008 (antibody, human IgG4 S228P, kappa, V domains shown)
VH: QVQLVQSGAEVKKPGASVKVSCKASGYTFTDYYMNWVRQAPGQRLEWMGVINPYNGDTAYNQKFKGRVTITRDTSASTAYMELSSLRSEDTAVYYCARDDGYYDYYFDVWGQGTTVTVSS
VL: DIQMTQSPSSLSASVGDRVTLTCRASQDIGSRLNWLQQKPGGAFKRLIYATSTLDSGVPKRFSGSRSGTDFTLTISSLQPEDFADYYCLQLASSPPTFGGGTKVEIKR
notes: Humanized mAb303
B4: Hu303-012 (antibody, human IgG4 S228P, kappa, V domains shown)
VH: QVQLVQSGAEVKKPGASVKVSCKASGYTFTDYYMNWVRQAPGQRLEWMGVINPYNGDTAYNQKFKGRVTITVDKSASTAYMELSSLRSEDTAVYYCTRDDGYYDYYFDVWGQGTTVTVSS
VL: DIQMTQSPSSLSASVGDRVTITCRASQDIGSRLNWLQQKPGKAFKRLIYATSTLDSGVPKRFSGSRSGTDFTLTISSLQPEDFATYYCLQLASSPPTFGGGTKVEIKR
notes: Humanized mAb303
B5: Hu303-013 (antibody, human IgG4 S228P, kappa, V domains shown)
VH: QVQLVQSGAEVKKPGASVKVSCKASGYTFTDYYMNWVRQAPGQRLEWMGVINPYNGDTAYNQKFKGRVTITVDKSASTAYMELSSLRSEDTAVYYCTRDDGYYDYYFDVWGQGTTVTVSS
VL: DIQMTQSPSSLSASVGDRVTLTCRASQDIGSRLNWLQQKPGGAFKRLIYATSTLDSGVPKRFSGSRSGTDFTLTISSLQPEDFADYYCLQLASSPPTFGGGTKVEIKR
notes: Humanized mAb303
B6: Hu303-015 (antibody, human IgG4 S228P, kappa, V domains shown)
VH: QVQLVQSGAEVKKPGASVKVSCKASGYTLTDYYMNWVRQAPGQRLEWMGVINPYNGDTAYNQKFKGRVTITVDKSASTAYMELSSLRSEDTAVYYCTRDDGYYDYYFDVWGQGTTVTVSS
VL: DIQMTQSPSSLSASVGDRVTITCRASQDIGSRLNWYQQKPGKAPKRLIYATSTLDSGVPSRFSGSRSGTDFTLTISSLQPEDFATYYCLQLASSPPTFGGGTKVEIKR
notes: Humanized mAb303
B7: Hu303-017 (antibody, human IgG4 S228P, kappa, V domains shown)
VH: QVQLVQSGAEVKKPGASVKVSCKASGYTLTDYYMNWVRQAPGQRLEWMGVINPYNGDTAYNQKFKGRVTITVDKSASTAYMELSSLRSEDTAVYYCTRDDGYYDYYFDVWGQGTTVTVSS
VL: DIQMTQSPSSLSASVGDRVTITCRASQDIGSRLNWLQQKPGKAFKRLIYATSTLDSGVPKRFSGSRSGTDFTLTISSLQPEDFATYYCLQLASSPPTFGGGTKVEIKR
notes: Humanized mAb303
B8: Hu303-018 (antibody, human IgG4 S228P, kappa, V domains shown)
VH: QVQLVQSGAEVKKPGASVKVSCKASGYTLTDYYMNWVRQAPGQRLEWMGVINPYNGDTAYNQKFKGRVTITVDKSASTAYMELSSLRSEDTAVYYCTRDDGYYDYYFDVWGQGTTVTVSS
VL: DIQMTQSPSSLSASVGDRVTLTCRASQDIGSRLNWLQQKPGGAFKRLIYATSTLDSGVPKRFSGSRSGTDFTLTISSLQPEDFADYYCLQLASSPPTFGGGTKVEIKR
notes: Humanized mAb303
B9: Hu303-019 (antibody, human IgG4 S228P, kappa, V domains shown)
VH: QVQLVQSGAEVKKPGASVKVSCKASGYTLTDYYMNWVRQAPGQRLEWIGVINPYNGDTAYNQKFKGRATLTVDKSASTAYMELSSLRSEDTAVYYCTRDDGYYDYYFDVWGQGTTVTVSS
VL: DIQMTQSPSSLSASVGDRVTITCRASQDIGSRLNWYQQKPGKAPKLLIYATSTLDSGVPSRFSGSGSGTDFTLTISSLQPEDFATYYCLQLASSPPTFGGGTKVEIKR
notes: Humanized mAb303
B10: Hu303-020 (antibody, human IgG4 S228P, kappa, V domains shown)
VH: QVQLVQSGAEVKKPGASVKVSCKASGYTLTDYYMNWVRQAPGQRLEWIGVINPYNGDTAYNQKFKGRATLTVDKSASTAYMELSSLRSEDTAVYYCTRDDGYYDYYFDVWGQGTTVTVSS
VL: DIQMTQSPSSLSASVGDRVTITCRASQDIGSRLNWYQQKPGKAPKRLIYATSTLDSGVPSRFSGSRSGTDFTLTISSLQPEDFATYYCLQLASSPPTFGGGTKVEIKR
notes: Humanized mAb303
B11: Hu303-021 (antibody, human IgG4 S228P, kappa, V domains shown)
VH: QVQLVQSGAEVKKPGASVKVSCKASGYTLTDYYMNWVRQAPGQRLEWIGVINPYNGDTAYNQKFKGRATLTVDKSASTAYMELSSLRSEDTAVYYCTRDDGYYDYYFDVWGQGTTVTVSS
VL: DIQMTQSPSSLSASVGDRVTITCRASQDIGSRLNWYQQKPGKAPKRLIYATSTLDSGVPKRFSGSRSGTDFTLTISSLQPEDFATYYCLQLASSPPTFGGGTKVEIKR
notes: Humanized mAb303
B12: Hu229-008 (antibody, human IgG4 S228P, kappa, V domains shown)
VH: QVQLVQSGSELKKPGASVKVSCKASGYTFTTSGMSWVRQAPGQGLKWMGWINTYSGVPTYADDFKGRFVFSLDTSVSTAYLQISSLKAEDTAVYYCARDNYDARDVYYYAMDYWGQGTTVTVSS
VL: DIQMTQSPSSLSASVGDRVTITCRASENIYSNLAWYQQKPGKAPKLLIYAATNLADGVPSRFSGSGSGTDFTLTISSLQPEDFATYYCQHFWITPWTFGGGTKVEIKR
notes: Humanized mAb229
B13: Hu229-012 (antibody, human IgG4 S228P, kappa, V domains shown)
VH: QVQLVQSGSELKKPGASVKVSCKASGYTFTTSGMSWVKQAPGQGLKWMGWINTYSGVPTYADDFKGRFVFSLDTSVSTAYLQISSLKAEDTATYYCARDNYDARDVYYYAMDYWGQGTTVTVSS
VL: DIQMTQSPSSLSASVGDRVTITCRASENIYSNLAWYQQKPGKAPKLLIYAATNLADGVPSRFSGSGSGTDFTLTISSLQPEDFATYYCQHFWITPWTFGGGTKVEIKR
notes: Humanized mAb229

What was measured:
[1] = biological target: T1, Fusion protein of LAG-3 extracellular …; assay: ELISA, LAG-3-mFc captured by anti-mouse Fc on plate (which fusion: inferred)
Description: The binding ability of anti-LAG-3 antibody to human LAG-3 protein was detected by ELISA assay. LAG-3 fusion protein with Fc or mFc tag was immobilized into 96-well microtiter plate by binding to anti-Fc or anti-mFc antibody coated on the microtiter plate, the strength of the signal after the addition of the antibody was used to determine the binding activity of the antibody to LAG-3, the specific experimental method is as follows.
The goat anti-human Fc antibody (Jackson Immuno Research, Cat No. 109-005-008) or goat anti-mouse Fc antibody (Sigma, Cat No. M3534-1ML) was diluted to a concentration of 2 μg/ml with PBS buffer at pH 7.4 (Sigma, Cat No. P4417-100TAB), and added to a 96-well plate at a volume of 50 μl/well and then, the plate was incubated in the incubator at 37° C. for 2 hours. After discarding the liquid, the plates were blocked with 200 μl/well of blocking solution containing 5% skim milk (Bright Dairy, skim milk powder) in PBS, and incubated in the incubator at 37° C. for 2.5 hours or overnight at 4° C. (16-18 hours). After blocking, the blocking solution was discarded and the plate was washed 5 times with PBST buffer (PH7.4 PBS containing 0.05% tween-20). LAG-3-Fc fusion protein (SEQ ID NO:3, produced in-house) or LAG-3-mFc fusion protein (SEQ ID NO: 4, produced in-house) was diluted with sample diluent (PH7.4 PBS containing 1% BSA) to 1 μg/ml and was added to each well, 50 μl/well. Then the plate was incubated in the incubator at 37° C. for 1 h or overnight at 4° C. After incubation, the reaction solution in the plate was discarded, and the plate was washed with PBST for 6 times, and then was added with 50 μl/well of various concentrations of antibodies to be tested (hybridoma purified antibody or humanized antibody) which have been diluted with sample diluent, and the plate was incubated at 37° C. for 1 h. The plates was washed 5 times with PBST after incubation, and was added with 100 μl/well of goat anti-mouse (Jackson Immuno Research, Cat No. 115-035-003) or goat anti-human secondary antibody (Jackson Immuno Research, Cat No. 109-035-003) labeled with HRP, diluted in sample diluent, and the plate was incubated at 37° C. for 1 h.

[2] = biological target: T2, Fusion protein of LAG-3 extracellular region and hIgG1 Fc (human); assay: competition: biotin-LAG-3-Fc binding to fixed Daudi cells, antibody titrated
T2 construct: Limits of the signal peptide are marked only by lost underlining; also called LAG-3-Fc; LAG-3-Fc fusion protein
Experimental: Daudi cells (human leukemia cells, purchased from the cell bank in Chinese Academy of Sciences) were seeded in 96-well plate with a density of 3×10⁵/well. After centrifugation at 1000 rpm, the supernatant was discarded and then the plate was fixed with 4% PFA for 30 min at room temperature. The plate was washed 4 times with PBS after discarding the fixed solution, and the plate was blocked with 200 μl/well of blocking solution containing 5% skim milk (Bright Dairy, skim milk powder) diluted in PBS, and incubated at 37° C. for 2.5 hours. After blocking, the blocking solution was discarded and the plate was washed 5 times with PBST buffer (pH7.4 PBS containing 0.05% tween-20), added with 50 μl/well mixture of biotin-labeled (Biotin labeling kit, Dojindo Chemical, Cat No. LK03) LAG-3-Fc fusion protein (produced in-house, SEQ ID NO: 3) and gradient concentrations of the antibody to be tested, wherein the biotin-labeled LAG-3-Fc fusion protein has been diluted with sample diluent (PH7.4 PBS containing 1% BSA) at a final concentration of 0.4 μg/ml, and pre-mixed for an hour, then the plate was incubated at 37° C. for 1 h. The reaction solution was discarded and the plate was washed 5 times with PBST after incubation, 50 μl/well of HRP-labeled Streptavidin (Sigma, Cat No. 52438) diluted with sample diluent was added, and the plate was incubated at 37° C. for 1 h. After washing the plate 5 times with PBST, 50 μl/well of TMB chromogenic substrate (KPL, Cat No. 52-00-03) was added to each well, and incubated at room temperature for 5-15 min, the reaction was stopped by the addition of 50 μl 1M H₂SO₄ to each well. The OD value at a wavelength of 450 nm was read on NOVOStar microplate reader, and then the activity of the LAG-3 antibody in blocking the binding of the antigen to Daudi cells was calculated.

EC50 [1] | IC50 [2] | Binder
0.314 nM | 0.728 nM | B1
0.135 nM | 0.343 nM | B2
0.14 nM | 0.346 nM | B3
0.164 nM | 0.361 nM | B4
0.166 nM | 0.347 nM | B5
0.172 nM | 0.398 nM | B6
0.168 nM | 0.398 nM | B7
0.244 nM | 0.608 nM | B8
0.277 nM | 0.471 nM | B9
0.14 nM | 0.345 nM | B10
0.17 nM | 0.456 nM | B11
0.506 nM | – | B12
0.268 nM | – | B13

Reference: US20220031842A1 (JIANGSU HENGRUI MEDICINE, published 2022)
